{"source": "patent US20220072098A1", "about": "(priority 2012, published 2022)", "molecules": {"B1": {"name": "free labeled protein: free trypsinogen labeled with AlexaFluor-488 (protein, UniProt P00760 18-246, looked up)", "pro-form": "VDDDDKIVGGYTCGANTVPYQVSLNSGYHFCGGSLINSQWVVSAAHCYKSGIQVRLGEDNINVVEGNEQFISASKSIVHPSYNSNTLNNDIMLIKLKSAASLNSRVASISLPTSCASAGTQCLISGWGNTKSSGTSYPDVLKCLKAPILSDSSCKSAYPGQITSNMFCAGYLEGGKDSCQGDSGGPVVCSGKLQGIVSWGSGCAQKNKPGVYTKVCNYVSWIKQTIASN", "modifications": "pro-form AlexaFluor-488 label"}}, "assay": "Tissue distribution of trypsinogen-AlexaFluor-488 after i.v. injection", "type": "in vivo, mice", "conditions": "200 μg i.v., 30 min", "protocol": "Trypsinogen—AlexaFluor®-488 was injected i.v. in its free form or encapsulated in the bolavesicles. At 30 min after the injection, mice were anesthetized by Xylazine-Ketamine mixture and blood was withdrawn through cardiac puncture, the mouse was perfused with 10 ml PBS and tissues were dissected out. The dissected tissues were attached to labeled paper stripes, frozen in isopentane cooled over liquid nitrogen, and stored at −80° C. The selected tissues were cryosectioned and the fluorescence of the sections was analyzed using confocal fluorescent microscopy. All images were acquired using the same imaging settings and were not corrected or modified. Fluorescence of slices from different organs was quantified by imaging software after subtracting background fluorescence. In effect, for quantifying the fluorescence in the tissue, the average fluorescence obtained from the control mice, which were injected with PBS instead of the fluorescent material was subtracted from the fluorescence values obtained from the same tissue taken from animals that received Trypsinogen-AlexaFluor®-488. At least 4 slices from each organ of each mouse were used for the quantitative analysis and each group contained 4-5 mice.\nPrior to delivering GDNF to the brain, pilot experiment, in vivo, studies were carried out with the model protein—trypsinogen, which was labeled for this purpose with AlexaFluor®-488. […]"}
{"molecule": "B1", "values": [{"measurement": "labeled trypsinogen fluorescence in kidney", "result": "high fluorescence"}]}
